One molecule from PMC5624926 can be followed below.

Test [1] has as its target dCD22_(20–687) (human) (UniProt P20273). Description: BLI; Octet RED96; CD22_(20–687) forms loaded on Ni-NTA biosensors; Fab in solution 500 to 62.5 nM; 1x PBS pH 7.4, 0.002% Tween, 0.01% BSA; 1:1 fit; triplicate. Background: In BLI a coated tip is dipped into the sample, and binding shifts an interference pattern.
Test [2] deals with CD22_(20–687)F (human) (UniProt P20273). The description is as above.
In test [3] the target is dCD22_(20–687) (human) (UniProt P20273). Description: ITC; Auto-ITC200; 5 μM CD22 in the cell, 50 μM Fab in the syringe; 35 °C; triplicate. In general terms: ITC needs no label: the signal is the heat of the interaction.
The target in test [4] is CD22_(20–687)F (human) (UniProt P20273). The description is as above.

B1: epratuzumab Fab (Fab, V domains shown)
VH: QVQLVQSGAEVKKPGSSVKVSCKASGYTFTSYWLHWVRQAPGQGLEWIGYINPRNDYTEYNQNFKDKATITADESTNTAYMELSSLRSEDTAFYFCARRDITTFYWGQGTTVTVSS
VL: DIQLTQSPSSLSASVGDRVTMSCKSSQSVLYSANHKNYLAWYQQKPGKAPKLLIYWASTRESGVPSRFSGSGSGTDFTLTISSLQPEDIATYYCHQYLSSWTFGGGTKLEIK
One may read the Kd as the concentration at which binding is half-saturated. With B1, the Kd in test [1] was found to be 24 nM; in test [2] it was 327 nM; in test [3], 58 nM; in test [4], 188 nM.
